Measurements reported in US20230201322A1.
Values belong to the binder of their own block, whether it stands above or below them.

Assays:
Settings in all cases: remark: other sources report otherwise
[1] = target: T1, HLA-A*0201 molecule expressed on the human tumoral cell T2 (human); assay: T2 cell HLA-A2 FACS (BB7.2-PE), peptide 100 µM
[2] = target: T1, HLA-A*0201 molecule expressed on the …; assay: T2 cell HLA-A2 FACS (BB7.2-PE), peptide 1 µM
[3] = target: T1, HLA-A*0201 molecule expressed on the …; assay: T2 cell HLA-A2 FACS (BB7.2-PE), peptide 10 µM
[4] = target: T1, HLA-A*0201 molecule expressed on the …; assay: T2 cell HLA-A2 FACS (BB7.2-PE), peptide 0.1 µM
[5] = target: T1, HLA-A*0201 molecule expressed on the …; assay: T2 cell HLA-A2 FACS (BB7.2-PE), peptide titration
[6] = target: T1, HLA-A*0201 molecule expressed on the …; assay: T2 cell HLA-A2 FACS (BB7.2-PE); ratio of 20% concentrations against HIV pol 589-597

- HLA-A2 labelling as % of reference peptide HIV pol 589-597 at 100 µM [1]: 196%
- HLA-A2 labelling as % of reference peptide HIV pol 589-597 at 100 µM [2]: -24%
- HLA-A2 labelling as % of reference peptide HIV pol 589-597 at 100 µM [3]: 11.9%
- HLA-A2 labelling as % of reference peptide HIV pol 589-597 at 100 µM [4]: -12.6%
- Conc. inducing 20% of HLA-A2 expression [5]: 16.3 µM
- Relative affinity [6]: 0.45
B1: reference human peptide derived from ERBB2, ERBB2-3H (…) (peptide)
peptide: VVLGVVFGI

- HLA-A2 labelling as % of reference peptide HIV pol 589-597 at 100 µM [1]: 336%
- HLA-A2 labelling as % of reference peptide HIV pol 589-597 at 100 µM [2]: 1.51%
- HLA-A2 labelling as % of reference peptide HIV pol 589-597 at 100 µM [3]: 57%
- HLA-A2 labelling as % of reference peptide HIV pol 589-597 at 100 µM [4]: -14.6%
- Conc. inducing 20% of HLA-A2 expression [5]: 6.9 µM
- Relative affinity [6]: 0.19
B2: antigenic peptide ERBB2-3B2 (…) (peptide)
peptide: VLLGVVFGV
